Test results taken from PMC8857057.

Molecular target: Pab1 monomer (Saccharomyces cerevisiae, UniProt P04147 1-577)
Experiment: fluorescence anisotropy

Chain of Pab1 monomer (P04147 whole entry): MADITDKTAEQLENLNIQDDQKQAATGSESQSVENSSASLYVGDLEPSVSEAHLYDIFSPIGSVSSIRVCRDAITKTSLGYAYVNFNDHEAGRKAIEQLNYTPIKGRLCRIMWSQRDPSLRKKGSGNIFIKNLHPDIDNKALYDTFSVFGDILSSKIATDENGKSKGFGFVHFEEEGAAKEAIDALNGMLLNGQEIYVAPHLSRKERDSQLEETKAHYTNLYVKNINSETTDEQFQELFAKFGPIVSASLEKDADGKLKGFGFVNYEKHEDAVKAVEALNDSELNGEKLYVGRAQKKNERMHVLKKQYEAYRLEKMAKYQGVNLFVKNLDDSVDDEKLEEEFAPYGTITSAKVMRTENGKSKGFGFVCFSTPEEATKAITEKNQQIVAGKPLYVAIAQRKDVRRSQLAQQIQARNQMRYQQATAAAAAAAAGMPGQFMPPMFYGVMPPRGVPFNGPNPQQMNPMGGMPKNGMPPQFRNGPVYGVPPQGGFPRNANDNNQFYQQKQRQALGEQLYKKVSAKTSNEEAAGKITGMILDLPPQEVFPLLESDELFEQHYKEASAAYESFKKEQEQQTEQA

AAAAAAAAAAAAAAAAAAA (ssRNA) [A19 RNA]
binding result: binds
